This series in a line: soluble on expression in E. coli; label from the status in PepcDB or PDB records.
With “KQQLTEDGDSFLHLAIIHEEKALTMEVIRQVKGDLAFLNFQNNLQQTPLHLAVITNQPEIAEALLGAGCDPELRDFRGNTPLHLACEQGCLASVGVLTQSCTTPHLHSILKATNYNGHTCLHLASIHGYLGIVELLVSLGADVNAQEPCNGRTALHLAVDLQNPDLVSLLLKCGADVNRVTYQGYSPYQLTWGRPSTRIQQQLGQLTLENLQMLPESEDEESYDTESEFTEFTEDE”, the “soluble on expression in E. coli” value is given as “soluble”.
To “KRKERLSARLGDILSQLYLSSATLKRFEQDGRPAEDLALVHWGLQDSLKQAEIAIDEFLANFPNKVIGRTLRVLIMPFGRVRKAPSDKLDSKVARILQTPSATRSRIGRGQYLEPTEHNPAGKIELALSVILQAEPVFDKVCKAQGKRRPFLRLDMIAQEGLEQGVITQEEAELLREAEQHRLDTINVDDFEPELLAAKPLYPQMDSVA” belongs “not soluble”; to “KRRAALNLRIFATEGAMMLGVTLSRLEGRSFIERSPGRRPFFKPGPLSPRLSRAFVNLSRLQRGGSFADPFCGTGGFAIEACLLGASRIACGDLDWAMVRGGPLNLSRYCPPGIWFYSAWNAAKLPLSSNSVDSIATDPPYGRSTTTGRMGYLSLTRAFLNTAVEVLRSEGWIVYAGPTRMSPETLAEDAGLRVVKVIEMFVHGSLTRSIVVARFG”, “not soluble”.
Regarding “KSGKEAGSQIMKFEVQDASPTIATELNLVTGEQVYYIKRLRFIEDNAAQLEETWMSVARFPDLTVSHMQKSKFSYIENECGIKIIGTFETFSPTFPTPEIASILRISPRDPILKIQTQAVDSNSIPLDYSLLYSNIFEFQVKYFFPR”, the “soluble on expression in E. coli” value was “not soluble”.
Turning to “KVSKGLILYPGAKVEIESYAPLARKIAESGYEVVIVKMPLNLAILGTNKAQKVMDSYNNIEHWVIGGHSLGGVAASNFARDNKLIEGVVFLASYPMGDELKELGKKVISIWGSKDGVVNFKSLVESKQKLPDDTTYVEIEGGNHAQFGDYGKQKGDNDAIISQEKQLNITANSIIKFLKNIS”, the “soluble on expression in E. coli” value was “not soluble”.
To “LAQEKNYDLPEGVMVYVIEGPFFFGAVETFQSALANTHTDPKVLIIRMRWVPFIDVTGLQAMEEIILNLQKRGVRVLLSEANPLVDAKLRKMGIVQLIGEQNYYKEFSQALDVCRINDSDRKSQPPFEVAKPLASVTQ” belongs “not soluble”; to “LFNYKEGDSFFIRGPYGNGFDVSLYEGREIVVVAGGSALAPVRGIVEYFYNNKEKCEKFKLIVGFKSPKDILFADDLKRWSKKLDILVTVDGAEEGYSGNVGLVTKYIPELDMKDINNTSIVVVGPPMMMKFTVEEFLKRDLDEKNIWV”, “not soluble”; to “LINILEQAKQKNTAQGSESTTNKIIGYTTTANVNVDNQNIFSVSKLNNEQFQRKIIVNATEETLDQSQTLQSNESIVLPMPGKYKSTDKNK”, “soluble”.
Turning to “LISPDVDIEEITTRILEEAMGLTGSEQGFVATIDPLSRTLVIHTFSSMMDCLWQGGEEGRRILFPPGQDGSYPTLWGHSLNTKCPFYTNDPAGHPSAVGVPHGHIPLRHFLSVPVMLGDEVVAQISLANPGRDYTERDLEAIGRVAKFFALAIQRMRAEESIR”, the “soluble on expression in E. coli” value is “not soluble”.
For the sequence “LKELHILTRDGKINQDTRRKLKQVYHLYQFIEPLMADVLEKKGAMTLADHGAGKSYLGFILYDLFLKEKAAGHVYGVETRQELVDKSRELAERLGFERMGFLNLTVEQSITSTALPEQVDIITALHACNTATDDAIRFALAKDAQYIVLVPCCQAEVASVLRQKKNETFGKTPLSELWRHPIHTRE”, the “soluble on expression in E. coli” value is “not soluble”.
As to “LKISTKGRYGLEAIVDLAIHSSEGRVSLKSIAERCGMSEAYILQIFLILRRAGIVESIRGAQGGYVLARDPSQITVGEILTVLEGPLAPVPCIAEKTKRSKSSCERYENCTARSFWEKIMNTLNDVANSITVEDLVKCYNSTVSQNTELEYYI”, the “soluble on expression in E. coli” value is on record as “soluble”.
With “LKSADHGGRLAYDNGRYGDGDGLTQNGGVNGGLRFGESGFLNLSAQFREQARTIRAGIDQRTGHYGNPSIGDPSLHRQALAYNAGVALDDNVELYSFATYTHRSVSSAQIYQLPSLAPRLYPNGFTPRITSDEDDYSLTLGARGGELFGAWDWDLSSTYGADRPEIGMDHSINLALYGETGDSPRSFDLARYKATQWTNNLDLRRDFDLAWLPAPLNFSWGLEQRRELYEVEAGDPWSYYNGGSKALPGQAPATAGQWSRDVLGAYLDLSIALDERWQLETAARYEHYSDFGSTTNGKLASRYRFSPEVSARASLSSGFRAPSLAQENYTS”, the “soluble on expression in E. coli” value is reported as “not soluble”.
With “LPEIPIAAPDLLGHGRSPWAAPWTIDANVSALAALLDNQGDGPVVVVGHSFGGAVAMHLAAARPDQVAALVLLDPAVALDGSRVREVVDAMLASPDYLDPAEARAEKATGAWADVDPPVLDAELDEHLVALPNGRYGWRISLPAMVCYWSELARDIVLPPVGTATTLVRAVRASPAYVSDQLLAALDKRLGADFELLDFDCGHMVPQAKPTEVAAVIRSRLGPR”, the “soluble on expression in E. coli” value is reported as “soluble”.
“LSKLTVVETPLEVNLPAGDNRVAVRVTPVSLNAGSLKSDAGARFGGGTSGAAGSQSDKGVGLAVAFERPEEGLKADIGTTPMGFKYTTVAGGASVDRPLGNNPDLRYGLNVSRRPVTDSVTSFAGSTDERSGLSWGGVTANGGRGQLSYDDQTIGGYGYGSWHKLVGNNVKSNTRGEVGGGVYWYLRNAEDSKLTAGLSLMGMSYDNDQSYFTYGHGGYFSPQSFYAIGVPVMWAQRTERFSYQVKSSVGVQHFKQDGAEFFPDDSTLQAASAQRYTGQSKTGIGYNLSAAGEYKLDSSLFMGASLGLDNARDYRQFSGALYLRYMFEDI”: the “soluble on expression in E. coli” value is “not soluble”.
For “LTEHLIDSIRTNRTENKIHLKPEPFNIGPYTKLSINKRDNYGTIKIKWFDRVPFTEYKSFLDSSIHNLNTRQITNLIIDLRWNIGGPREYPIYLLSKILNQPFRYCDSLITTKFTFEEKIAFDSTKVFVPMDNGFYKVVKNARGLGQQNPSNVTFTGNIYLLVDGQSNSSSAQVASLIYQNRRGTIIGEEPGGLFEGGTGEHHYYLTLTNSRIKVQIPRYRIVLHVDRSKFHGHGVKPDYEVKPDITDMIQGKDPVMEFTIGLIKK”, the “soluble on expression in E. coli” value was “not soluble”.
Take “LTETGALFKLEVALLKDKVTLTLDTTGPSLFKRGYRIEKGGAPLKENMAAALVMLTNWRKDRPFYDPVCGSGTICIEAALIGHNIAPGFNRSFTCETWDWVDPAIFEKVRNEAEAKADYDVELDICGSDVDGRMIEVARANAEEVGLGDSITFKQLALKDFTTEKEYGVMVANPPYGERLGEEESVRRLYKEMGHVFRPLTTWSKYILTSDLAFEEYYGAKATKKRKLYNGALRTDLFQYWGTRPPRKPRED”: the “soluble on expression in E. coli” value was “not soluble”.
Turning to “LTTRDFDRTGRPLRFTELGFGSSPLGNLYRAISEEEAQALLERAWAGGIRYFDTAPLYGYGLAEERLGRFLAGHPRSDYVLSTKVGRLLRPVEPGEARDGLGKFFEVPERKERFDYGYDGVMRSLEASLDRLGLDRVDVLYAHDLDLFTHGSQEALEARLAEFMAGGYRALVELRDQGVISAFGAGVNEWQPCQWLAERGEFDLFLLAGRYTLLEQEALESFLPLAEERGIGIVIGGPYNSGVLATGPKPGSFYDYRLAPQAVLDRVAQIHTICERWGVRMFEAAFQFPLRHPAVLSVIPGPQSVGEVMENRIAADAELPPGLWEDLKVAGLLRPD”, the “soluble on expression in E. coli” value is “soluble”.
As for “LVGDFERELGRLLSPFELEDLQKTLQEDQTDPDIVRAALREAVFNGKTSWNYINAILRNWRREGLTTLRQIEERKQAREDNQMKDLAISDDFKNAMNLWE”, the “soluble on expression in E. coli” value is “not soluble”.
On to “LVKVKREIIRMDHPAIRPEAGRAPAVDAATLRRWLAQGRDDQGRELVMLDTRNAFEVEVGTFRGALDWRIERFTQFPQAVRDNQAALAGKTVVSFCTGGIRCEKAAIYMAEAGIEHVYQLEGGILKYFEETDGAGFDGACFVFDERVALDAALAPQ”, for which the “soluble on expression in E. coli” value is reported as “not soluble”.
Turning to “LVPRGSAMGSGNDTSRGANKTVVVTTILESPYVMMKKNHEMLEGNERYEGYCVDLAAEIAKHCGFKYKLTIVGDGKYGARDADTKIWNGMVGELVYGKADIAIAPLTITLVREEVIDFSKPFMSLGISIMIKKGTPIESAEDLSKQTEIAYGTLDSGSTKEFFRRSKIAVFDKMWTYMRSAEPSVFVRTTAEGVARVRKSKGKYAYLLESTMNEYIEQRKPCDTMKVGGNLDSKGYGIATPKGSSLGNAVNLAVLKLNEQGLLDKLKNKWWYDKGECGS”, the “soluble on expression in E. coli” value was “soluble”.
“LYKKAGLMVDKKLVVVFGGTGAQGGSVARTLLEDGTFKVRVVTRNPRKKAAKELRLQGAEVVQGDQDDQVIMELALNGAYATFIVTNYWESCSQEQEVKQGKLLADLARRLGLHYVVYSGLENIKKLTAGRLAAAHFDGKGEVEEYFRDIGVPMTSVRLPCYFENLLSHFLPQKAPDGKSYLLSLPTGDVPMDGMSVSDLGPVVLSLLKMPEKYVGQNIGLSTCRHTAEEYAALLTKHTRKVVHDAKMTPEDYEKLGFPGARDLANMFRFYALRPDRDIELTLRLNPKALTLDQWLEQHKGDFNLL”: the “soluble on expression in E. coli” value was “soluble”.
“MAAAAAAAGGAALAVSTGLETATLQKLALRRKKVLGAEEMELYELAQAAGAAIDPDVFKILVDLLNLNVAPLAVFQMLKSMCAGQRLASDPQDSVPISLSTSTSETRGRNRGGPILGNVTISAERGSRERPIQRMPRQPSATRLPKVGGSGKSNSRSSP”: the “soluble on expression in E. coli” value was “soluble”.
Turning to “MAAAAARSTSPFEIRHAVTIAAPPEAVFDYVTNPKSWPEWLPSSHALECDDRPMGFGDTFHEHWSTRSGPVDLDWLVIACDRPLLWIGLTQTSFMGPVVVHYTFEAVDDGTRFTRILRNPARPKPPTAEMIERMSTEAELGLGNIKRIVERR”, the “soluble on expression in E. coli” value is recorded as “not soluble”.
As for “MAAADIARQLGEDCRTVPLAGHVGFDSLPDQLVNKSVSQGFCFNILCVGETGLGKSTLMDTLFNTKFEGEPATHTQPGVQLQSNTYDLQESNVGLKLTIVSTVGFGDQINKEDSYKPIVEFIDAQFEAYLQEELKIRRVLHSYHDSRIHVCLYFIAPTGHSLKSLDLVTMKKLDSKVNIIPVIAKSDAISKSELAKFKIKITSELVSNGVQIYQFPTDDESVSEINGTMNAHLPFAVCSTEEVKIGNKMMRARQYPWGTVQVENEAHCDFVKLREMLIRVNMEDLREQTHARHYELYRRCKLEEMGFKDTDPDSKPFSLQETYEAKRNEFLGELQKKEEEMRQMFVQRVKEKEAELKEAEKELHEKFDRLKKLHQEEKKKLEDKKKCLDEEMNAFKQRKAAAELLQSQGSQAGGSQTLKRDKEKKNNPWLCIE”, the “soluble on expression in E. coli” value is “soluble”.
“MAAAGEEYSSDKIEERSLAAIDSMIDPDISGPMRHIVVKAIHAAGDFAIAPLIRYSDGFFKSMLAKLKEGCTIICDSEMVRAGIYSRPVLERNRVVCYLNDVRSKEMADVNGITRSAAGIRIAMQDHRNSVIVIGNAPTALLEAMRMIEENGWYDIPIVGIPVGFINASKAKEGLVSSHIEYISVEGHRGGSPIAASIVNGFGRFLA”: the “soluble on expression in E. coli” value is on record as “soluble”.
With “MAAFEAHDYALAERQAQALLAHPATASGARFMLGYVYAFMDRFDEARASFQALQQQAQKSGDHTAEHRALHQVGMVERMAGNWDAARRCFLEERELLASLPEDPLAASANAYEVATVALHFGDLAGARQEYEKSLVYAQQADDQVAIACAFRGLGDLAQQEKNLLEAQQHWLRARDIFAELEDSEAVNELMTRLNGLEHHHHHH”, the “soluble on expression in E. coli” value is given as “not soluble”.
